# From IntAct's records for PubMed 29997244
# B1: DnaJ homolog subfamily C member 5 (Homo sapiens), Q9H3Z4 (parent)
# chain: MADQRQRSLSTSGESLYHVLGLDKNATSDDIKKSYRKLALKYHPDKNPDNPEAADKFKEINNAHAILTDATKRNIYDKYGSLGLYVAEQFGEENVNTYFVLSSWWAKALFVFCGLLTCCYCCCCLCCCFNCCCGKCKPKAPEGEETEFYVSPEDLEAQLQSDEREATDTPIVIQPASATETTQLTADSHPSYHTDGFN
# partner: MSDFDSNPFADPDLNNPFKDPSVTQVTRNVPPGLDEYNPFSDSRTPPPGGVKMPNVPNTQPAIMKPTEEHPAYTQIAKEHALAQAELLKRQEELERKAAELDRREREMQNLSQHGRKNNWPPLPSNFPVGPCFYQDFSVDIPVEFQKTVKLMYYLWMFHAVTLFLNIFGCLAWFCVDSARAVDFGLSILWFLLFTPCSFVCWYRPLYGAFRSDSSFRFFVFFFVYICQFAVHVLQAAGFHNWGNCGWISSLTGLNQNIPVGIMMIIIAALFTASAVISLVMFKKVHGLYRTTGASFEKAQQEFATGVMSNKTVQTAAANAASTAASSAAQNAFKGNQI
# B2: DnaJ homolog subfamily C member 5 (Homo sapiens), Q9H3Z4 (parent)
# chain: B1 chain
# partner: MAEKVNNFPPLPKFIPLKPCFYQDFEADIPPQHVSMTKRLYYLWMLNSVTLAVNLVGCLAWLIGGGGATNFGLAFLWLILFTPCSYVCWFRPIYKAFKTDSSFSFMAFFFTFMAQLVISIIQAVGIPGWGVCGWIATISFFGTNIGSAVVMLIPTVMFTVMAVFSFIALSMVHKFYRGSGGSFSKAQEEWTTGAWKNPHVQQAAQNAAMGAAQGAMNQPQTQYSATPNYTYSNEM
# B3: DnaJ homolog subfamily C member 5 (Homo sapiens), Q9H3Z4 (parent)
# chain: B1 chain
# partner: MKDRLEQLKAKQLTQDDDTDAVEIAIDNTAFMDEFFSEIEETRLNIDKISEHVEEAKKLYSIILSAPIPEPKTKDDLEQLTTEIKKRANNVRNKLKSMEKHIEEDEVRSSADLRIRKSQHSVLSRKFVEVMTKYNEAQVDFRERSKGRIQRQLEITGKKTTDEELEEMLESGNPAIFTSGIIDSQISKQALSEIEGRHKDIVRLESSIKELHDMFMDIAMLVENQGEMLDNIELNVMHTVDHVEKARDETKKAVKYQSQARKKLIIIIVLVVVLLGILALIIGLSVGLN
# B4: DnaJ homolog subfamily C member 5 (Homo sapiens), Q9H3Z4 (parent)
# chain: B1 chain
# partner: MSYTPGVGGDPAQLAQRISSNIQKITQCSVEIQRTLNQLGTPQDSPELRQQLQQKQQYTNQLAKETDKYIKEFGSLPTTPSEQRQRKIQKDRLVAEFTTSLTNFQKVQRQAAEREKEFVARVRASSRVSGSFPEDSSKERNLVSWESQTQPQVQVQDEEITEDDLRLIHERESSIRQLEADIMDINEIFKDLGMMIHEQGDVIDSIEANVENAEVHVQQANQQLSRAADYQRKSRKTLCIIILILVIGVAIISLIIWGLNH
# B5: DnaJ homolog subfamily C member 5 (Homo sapiens), Q9H3Z4 (parent)
# chain: B1 chain
# partner: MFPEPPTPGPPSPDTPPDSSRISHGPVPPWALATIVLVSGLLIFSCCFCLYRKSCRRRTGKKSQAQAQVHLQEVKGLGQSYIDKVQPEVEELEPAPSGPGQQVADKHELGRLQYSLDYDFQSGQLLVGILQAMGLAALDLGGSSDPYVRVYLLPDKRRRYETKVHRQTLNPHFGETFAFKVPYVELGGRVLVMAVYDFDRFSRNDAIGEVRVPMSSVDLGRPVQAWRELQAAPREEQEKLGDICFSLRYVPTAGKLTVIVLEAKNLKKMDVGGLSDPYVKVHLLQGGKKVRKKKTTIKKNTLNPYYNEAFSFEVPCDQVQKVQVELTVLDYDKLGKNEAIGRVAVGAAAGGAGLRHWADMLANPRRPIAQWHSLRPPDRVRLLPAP
# B6: DnaJ homolog subfamily C member 5 (Homo sapiens), Q9H3Z4 (parent)
# chain: B1 chain
# partner: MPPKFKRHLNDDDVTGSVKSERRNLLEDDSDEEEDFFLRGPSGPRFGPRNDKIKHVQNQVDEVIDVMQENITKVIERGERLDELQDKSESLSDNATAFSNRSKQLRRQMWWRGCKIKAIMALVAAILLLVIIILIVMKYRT
# B7: DnaJ homolog subfamily C member 5 (Homo sapiens), Q9H3Z4 (parent)
# chain: B1 chain
# partner: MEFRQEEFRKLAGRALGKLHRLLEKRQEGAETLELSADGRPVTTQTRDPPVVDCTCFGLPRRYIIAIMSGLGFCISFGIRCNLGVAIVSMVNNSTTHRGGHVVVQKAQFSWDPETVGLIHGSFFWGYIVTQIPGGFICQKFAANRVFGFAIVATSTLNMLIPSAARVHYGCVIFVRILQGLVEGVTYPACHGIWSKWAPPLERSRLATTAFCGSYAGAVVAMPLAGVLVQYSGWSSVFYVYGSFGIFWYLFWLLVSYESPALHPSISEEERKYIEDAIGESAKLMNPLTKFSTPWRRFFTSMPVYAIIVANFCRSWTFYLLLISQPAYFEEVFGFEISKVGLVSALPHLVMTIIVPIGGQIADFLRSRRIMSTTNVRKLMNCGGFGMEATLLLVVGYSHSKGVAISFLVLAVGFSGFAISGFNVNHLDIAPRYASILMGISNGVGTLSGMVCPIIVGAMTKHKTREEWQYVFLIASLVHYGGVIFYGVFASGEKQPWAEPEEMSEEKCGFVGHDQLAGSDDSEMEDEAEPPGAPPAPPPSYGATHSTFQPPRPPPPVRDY
# B8: DnaJ homolog subfamily C member 5 (Homo sapiens), Q9H3Z4 (parent)
# chain: B1 chain
# partner: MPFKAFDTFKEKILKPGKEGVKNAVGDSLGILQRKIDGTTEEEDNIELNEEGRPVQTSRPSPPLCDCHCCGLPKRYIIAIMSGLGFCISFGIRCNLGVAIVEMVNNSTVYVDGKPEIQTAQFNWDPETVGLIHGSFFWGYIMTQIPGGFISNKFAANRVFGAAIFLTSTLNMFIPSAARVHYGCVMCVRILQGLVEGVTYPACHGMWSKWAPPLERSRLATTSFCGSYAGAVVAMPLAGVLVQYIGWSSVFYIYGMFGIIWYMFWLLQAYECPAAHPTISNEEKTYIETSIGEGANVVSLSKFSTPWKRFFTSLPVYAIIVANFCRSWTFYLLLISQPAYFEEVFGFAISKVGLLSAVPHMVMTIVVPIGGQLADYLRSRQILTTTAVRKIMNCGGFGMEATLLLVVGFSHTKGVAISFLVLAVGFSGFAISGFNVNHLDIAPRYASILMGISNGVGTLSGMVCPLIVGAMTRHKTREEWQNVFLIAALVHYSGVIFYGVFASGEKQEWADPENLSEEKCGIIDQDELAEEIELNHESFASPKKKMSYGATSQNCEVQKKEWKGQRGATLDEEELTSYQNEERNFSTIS
# B9: DnaJ homolog subfamily C member 5 (Homo sapiens), Q9H3Z4 (parent)
# chain: B1 chain
# partner: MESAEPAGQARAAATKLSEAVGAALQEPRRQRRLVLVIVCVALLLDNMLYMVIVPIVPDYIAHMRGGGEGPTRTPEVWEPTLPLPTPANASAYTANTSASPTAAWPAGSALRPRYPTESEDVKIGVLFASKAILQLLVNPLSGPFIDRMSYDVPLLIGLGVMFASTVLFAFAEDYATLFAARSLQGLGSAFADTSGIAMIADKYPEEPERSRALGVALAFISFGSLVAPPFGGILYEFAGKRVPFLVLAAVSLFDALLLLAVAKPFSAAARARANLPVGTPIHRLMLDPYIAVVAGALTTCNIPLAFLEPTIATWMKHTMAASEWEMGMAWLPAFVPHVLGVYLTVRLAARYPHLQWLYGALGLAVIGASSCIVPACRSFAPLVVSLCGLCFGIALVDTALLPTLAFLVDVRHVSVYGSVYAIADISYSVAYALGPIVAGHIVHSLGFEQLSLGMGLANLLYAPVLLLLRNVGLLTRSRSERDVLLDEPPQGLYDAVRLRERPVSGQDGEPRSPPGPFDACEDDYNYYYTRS
# B10: DnaJ homolog subfamily C member 5 (Homo sapiens), Q9H3Z4 (parent)
# chain: B1 chain
# partner: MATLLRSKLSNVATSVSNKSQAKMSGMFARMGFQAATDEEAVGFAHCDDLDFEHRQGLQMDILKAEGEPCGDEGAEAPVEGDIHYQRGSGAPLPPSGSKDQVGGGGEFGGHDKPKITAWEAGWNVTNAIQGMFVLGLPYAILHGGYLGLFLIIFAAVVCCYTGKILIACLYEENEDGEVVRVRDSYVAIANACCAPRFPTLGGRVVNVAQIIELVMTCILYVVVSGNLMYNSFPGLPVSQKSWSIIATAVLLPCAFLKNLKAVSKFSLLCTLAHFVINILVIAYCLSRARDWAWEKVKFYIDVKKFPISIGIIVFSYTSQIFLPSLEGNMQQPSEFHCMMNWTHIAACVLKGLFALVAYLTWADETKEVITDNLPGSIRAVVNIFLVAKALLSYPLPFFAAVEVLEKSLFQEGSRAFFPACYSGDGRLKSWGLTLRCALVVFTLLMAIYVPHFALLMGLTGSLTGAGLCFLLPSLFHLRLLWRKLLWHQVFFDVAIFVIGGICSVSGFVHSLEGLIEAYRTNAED
# Variants of: B1
# Conditions: with scam1_human SCAMP1, O15126
row,Variant,effect of a mutation on the interaction
1,L115R,with no effect

# Variants of: B2
# Conditions: with scam5_human SCAMP5, Q8TAC9
row,Variant,effect of a mutation on the interaction
1,L115R,with no effect

# Variants of: B3
# Conditions: with stx3_human STX3, Q13277
row,Variant,effect of a mutation on the interaction
1,L115R,with no effect

# Variants of: B4
# Conditions: with stx7_human STX7, O15400
row,Variant,effect of a mutation on the interaction
1,L115R,decreasing interaction strength

# Variants of: B5
# Conditions: with syt5_human SYT5, O00445
row,Variant,effect of a mutation on the interaction
1,L115R,with no effect

# Variants of: B6
# Conditions: with vamp4_human VAMP4, O75379
row,Variant,effect of a mutation on the interaction
1,L115R,with no effect

# Variants of: B7
# Conditions: with vglu1_human SLC17A7, Q9P2U7
row,Variant,effect of a mutation on the interaction
1,L115R,with no effect

# Variants of: B8
# Conditions: with vglu3_human SLC17A8, Q8NDX2
row,Variant,effect of a mutation on the interaction
1,L115R,with no effect

# Variants of: B9
# Conditions: with vacht_human SLC18A3, Q16572
row,Variant,effect of a mutation on the interaction
1,L115R,with no effect

# Variants of: B10
# Conditions: with viaat_human SLC32A1, Q9H598
row,Variant,effect of a mutation on the interaction
1,L115R,with no effect
